According to patent publication US6072035:

Tests used:
[1] = target: human IgE; monoclonal antibody SE44 (human) (UniProt P01854); experiment: BIAcore, antibody captured by anti-mouse IgG1, IgE SE44 as analyte
[2] = target: human IgE; monoclonal antibody SE44 (human) (UniProt P01854); experiment: BIAcore, antibody captured by anti-human IgG, IgE SE44 as analyte

B1: murine monoclonal antibody TES-C21 (antibody, V domains shown)
VH: QVQLQQSGAELMKPGASVKISCKTTGYTFSMYWLEWVKQRPGHGLEWVGEISPGTFTTNYNEKFKAKATFTADTSSNTAYLQLSGLTSEDSAVYFCARFSHFSGSNYDYFDYWGQGTSLTVSS
VL: DILLTQSPAILSVSPGERVSFSCRASQSIGTNIHWYQQRTDGSPRLLIKYASESISGIPSRFSGSGSGTEFTLNINSVESEDIADYYCQQSDSWPTTFGGGTKLEIK
- Ka [1]: 9.2e+09 M⁻¹
- koff [1]: 2.6e-05 s⁻¹
- kon [1]: 240000 M⁻¹ s⁻¹

B2: reshaped human C21 antibody C21-H1/L3 (antibody, V domains shown)
VH: QVQLVQSGAEVKKPGASVKVSCKASGYTFSMYWLEWVKQRPGHGLEWVGEISPGTFTTNYNEKFKAKATFTADTSTNTAYMELSSLTSEDTAVYYCARFSHFSG
VL: EIVLTQSPGTLSLSPGERATLSCRASQSIGTNIHWYQQKPGQAPRLLIKYASESISGIPSRFSGSGSGTDFTLTISRLEPEDFAMYYCQQSDSWPTTFGQGTKVEIK
- Ka [2]: 4.7e+09 M⁻¹
- koff [2]: 6.2e-05 s⁻¹
- kon [2]: 290000 M⁻¹ s⁻¹

B3: reshaped human C21 antibody C21-H3/L1 (antibody, V domains shown)
VH: QVQLVQSGAEVKKPGASVKVSCKASGYTFSMYWLEWVRQAPGHGLEWVGEISPGTFTTNYNEKFKARATFTADTSTNTAYMELSSLRSEDTAVYYCARFSHFSG
VL: DILLTQSPGTLSLSPGERATLSCRASQSIGTNIHWYQQKPGQAPRLLIKYASESISGIPSRFSGSGSGTDFTLTISRLEPEDFAMYY
- Ka [2]: 1.32e+10 M⁻¹
- koff [2]: 1.9e-05 s⁻¹
- kon [2]: 250000 M⁻¹ s⁻¹

B4: reshaped human C21 antibody C21-H3/L2 (antibody, V domains shown)
VH: QVQLVQSGAEVKKPGASVKVSCKASGYTFSMYWLEWVRQAPGHGLEWVGEISPGTFTTNYNEKFKARATFTADTSTNTAYMELSSLRSEDTAVYYCARFSHFSG
VL: DILLTQSPGTLSLSPGERATLSCRASQSIGTNIHWYQQKPGQAPRLLIKYASESISGIPDRFSGSGSGTDFTLTISRLEPEDFAMYYCQQSDSWPTTFGQGTKVEIK
- Ka [2]: 5.7e+09 M⁻¹
- koff [2]: 4.4e-05 s⁻¹
- kon [2]: 250000 M⁻¹ s⁻¹

B5: reshaped human C21 antibody C21-H3/L3 (antibody, V domains shown)
VH: QVQLVQSGAEVKKPGASVKVSCKASGYTFSMYWLEWVRQAPGHGLEWVGEISPGTFTTNYNEKFKARATFTADTSTNTAYMELSSLRSEDTAVYYCARFSHFSG
VL: EIVLTQSPGTLSLSPGERATLSCRASQSIGTNIHWYQQKPGQAPRLLIKYASESISGIPSRFSGSGSGTDFTLTISRLEPEDFAMYYCQQSDSWPTTFGQGTKVEIK
- Ka [2]: 7.4e+09 M⁻¹
- koff [2]: 3.5e-05 s⁻¹
- kon [2]: 260000 M⁻¹ s⁻¹

B6: reshaped human C21 antibody C21-Hay3/L1 (antibody, V domains shown)
VH: QVQLVQSGAEVKKPGASVKVSCKASGYTFSMYWLEWVRQAPGQRLEWMGEISPGTFTTNYNEKFKARATFTADTSASTAYMELSSLRSEDTAVYYCARFSHFSGSNYDYFDYWGQGTLVTVSS
VL: DILLTQSPGTLSLSPGERATLSCRASQSIGTNIHWYQQKPGQAPRLLIKYASESISGIPSRFSGSGSGTDFTLTISRLEPEDFAMYY
- Ka [2]: 6.1e+09 M⁻¹
- koff [2]: 4.1e-05 s⁻¹
- kon [2]: 250000 M⁻¹ s⁻¹

B7: reshaped human C21 antibody C21-Hay3/L2 (antibody, V domains shown)
VH: QVQLVQSGAEVKKPGASVKVSCKASGYTFSMYWLEWVRQAPGQRLEWMGEISPGTFTTNYNEKFKARATFTADTSASTAYMELSSLRSEDTAVYYCARFSHFSGSNYDYFDYWGQGTLVTVSS
VL: DILLTQSPGTLSLSPGERATLSCRASQSIGTNIHWYQQKPGQAPRLLIKYASESISGIPDRFSGSGSGTDFTLTISRLEPEDFAMYYCQQSDSWPTTFGQGTKVEIK
- Ka [2]: 8.1e+09 M⁻¹
- koff [2]: 3.1e-05 s⁻¹
- kon [2]: 250000 M⁻¹ s⁻¹

B8: reshaped human C21 antibody C21-Hay3/L3 (antibody, V domains shown)
VH: QVQLVQSGAEVKKPGASVKVSCKASGYTFSMYWLEWVRQAPGQRLEWMGEISPGTFTTNYNEKFKARATFTADTSASTAYMELSSLRSEDTAVYYCARFSHFSGSNYDYFDYWGQGTLVTVSS
VL: EIVLTQSPGTLSLSPGERATLSCRASQSIGTNIHWYQQKPGQAPRLLIKYASESISGIPSRFSGSGSGTDFTLTISRLEPEDFAMYYCQQSDSWPTTFGQGTKVEIK
- Ka [2]: 1.6e+09 M⁻¹
- koff [2]: 0.000159 s⁻¹
- kon [2]: 260000 M⁻¹ s⁻¹

B9: reshaped human C21 antibody C21-H1/L1 (antibody, V domains shown)
VH: QVQLVQSGAEVKKPGASVKVSCKASGYTFSMYWLEWVKQRPGHGLEWVGEISPGTFTTNYNEKFKAKATFTADTSTNTAYMELSSLTSEDTAVYYCARFSHFSG
VL: DILLTQSPGTLSLSPGERATLSCRASQSIGTNIHWYQQKPGQAPRLLIKYASESISGIPSRFSGSGSGTDFTLTISRLEPEDFAMYY
- Ka [2]: 8.7e+09 M⁻¹
- koff [2]: 3e-05 s⁻¹
- kon [2]: 260000 M⁻¹ s⁻¹

B10: reshaped human C21 antibody C21-H1/L2 (antibody, V domains shown)
VH: QVQLVQSGAEVKKPGASVKVSCKASGYTFSMYWLEWVKQRPGHGLEWVGEISPGTFTTNYNEKFKAKATFTADTSTNTAYMELSSLTSEDTAVYYCARFSHFSG
VL: DILLTQSPGTLSLSPGERATLSCRASQSIGTNIHWYQQKPGQAPRLLIKYASESISGIPDRFSGSGSGTDFTLTISRLEPEDFAMYYCQQSDSWPTTFGQGTKVEIK
- Ka [2]: 4.9e+09 M⁻¹
- koff [2]: 5.7e-05 s⁻¹
- kon [2]: 280000 M⁻¹ s⁻¹
